Experiment [1] has as its system RAD51 foci in BxPC-3 cell nuclei. Briefly: Immunofluorescence detection of RAD51 nuclear foci. Type of experiment: cell-based. The settings on record: 1.5 h. As to the method:
General cell culture. BxPC-3 cells (purchased from ATCC) were grown in RPMI 1640 containing 10% FBS, 100 U/mL penicillin–streptomycin, and 2 mM glutamine. All media and supplements were from Sigma-Aldrich. Cultures were routinely tested for mycoplasma contamination. Immunofluorescence. Immunofluorescence was used to study RAD51 nuclear translocation. To visualize RAD51 in cell nuclei, BxPC-3 cells were seeded on glass coverslips placed in a 6-well culture plate (2 × 10^5 cells/well) and allowed to adhere for 24 h. […] The medium was then removed to eliminate the chemotherapeutic agents, and cells were maintained in the presence of 5 µM BRC4myr for an additional 4 h. After this time, cells were fixed with PBS containing PFA 4% for 15 min, permeabilized in 70% ethanol, and then washed twice in PBS. […] After washing, coverslips were incubated in secondary anti-rabbit rhodamine-labelled antibody (Novus Biologicals, 1:1000 in 1% BSA/PBS) for 30 min at 37 °C, washed, air-dried, and mounted in a solution 2 µg/mL DAPI in DABCO. Images were acquired using a Nikon fluorescent microscope equipped with filters for TRITC and DAPI. The percentage of cells bearing nuclear foci was estimated by analyzing approximately 300 cells for each treatment sample.

In another experiment the target is RAD51 (Homo sapiens) (UniProt Q06609). Briefly: GST pull-down. The settings on record: cited from earlier work.
Another experiment concerns RAD51. The settings on record: pull-down assays; cited from earlier work. An excerpt: This information comes from the only 3D structure of the RAD51-BRC4 interaction (PBD 1NOW).
Experiment [2] deals with full-length recombinant human RAD51 (N-terminal 6xHis-tagged) (human) (UniProt Q06609).
In the next experiment the test system is RAD51 fibrils. Briefly: Negative staining TEM of RAD51 fibrils. The class given is biochemical, human. The settings on record: large stoichiometric excess of peptide; RAD51 0.1 mg/mL (2.5 µM); incubation 2 h at 4 °C.
Experiment [3] addresses T1, 6xHis-RAD51 (full-length recombinant human RAD51) (Homo sapiens, UniProt Q06609).
T1 construct: The full-length human RAD51 was expressed in E. coli Rosetta2(DE3) pLysS cells; made in house; host or cells: E. coli Rosetta2(DE3) pLysS, pET15b plasmid
T1 sequence (Q06609 1-339): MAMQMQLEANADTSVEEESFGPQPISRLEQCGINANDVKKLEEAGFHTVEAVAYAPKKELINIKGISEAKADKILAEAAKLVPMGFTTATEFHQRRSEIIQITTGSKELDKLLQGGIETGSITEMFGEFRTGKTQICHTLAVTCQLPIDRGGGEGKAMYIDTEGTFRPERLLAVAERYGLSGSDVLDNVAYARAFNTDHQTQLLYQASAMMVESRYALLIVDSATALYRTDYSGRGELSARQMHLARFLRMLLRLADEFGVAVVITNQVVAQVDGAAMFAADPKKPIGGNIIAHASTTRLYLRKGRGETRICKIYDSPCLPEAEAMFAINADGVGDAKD
The experiment is described as follows: Microscale thermophoresis (MST). Type of experiment: binding. The following applies: highest concentration tested 400 μM; data not shown. Background: MST reads how a fluorescent partner responds to local heating, with and without ligand.

Experiment [4] deals with T2, RAD51 fibrils (full-length recombinant human RAD51) (Homo sapiens, UniProt Q06609).
T2 construct: The full-length human RAD51 was expressed in E. coli Rosetta2(DE3) pLysS cells; made in house; host or cells: E. coli Rosetta2(DE3) pLysS, pET15b plasmid
T2 sequence (Q06609 1-339): T1 sequence (Q06609 1-339)
The experiment is described as follows: Static light scattering (SLS / CG-MALS) of BRC4-induced RAD51 defibrillation. Type of experiment: biochemical. The settings on record: RAD51 6.25 µM = 0.25 mg/mL; very significant stoichiometric excesses of peptide.
Protocol: Static light scattering (SLS) and composition-gradient multi-angle static light scattering (CG-MALS). Measurements were carried out using a Calypso automated delivery system as a mixing unit, connected to a Dawn Heleos II multi-angle light scattering (MALS) and a T-rEX refractive index (RI) detector, both operating at 660 nm (all instruments produced by Wyatt Technology, Santa Barbara, CA, USA). […] Injection volume and flow rate were fixed at 0.8 mL and 1 mL/min, respectively. A delay time of 180 s was set between each injection.

For experiment [5], the target named is T3, full-length recombinant human RAD51 (N-terminal 6xHis-tagged) (human, UniProt Q06609 1-339).
T3 construct: RAD51, human, full length; recombinase of 339 amino acids, about 40 kDa as monomer; Forms fibrils (homo-oligomers) without DNA; for MST labelled on the His tag with RED-tris-NTA 2nd Generation dye; also called His-RAD51; 6xHis-RAD51; source: E. coli Rosetta2(DE3) pLysS, pET15b, purified (His-Trap, anion exchange); not shown: His6, N-terminal, kept
T3 sequence (looked up): T1 sequence (Q06609 1-339)
The experiment is described as follows: static light scattering (CG-MALS) + other: dynamic light scattering; RAD51 constant at 0.25 mg/mL (6.25 µM) with BRC4 or scBRC4 from 0 to 0.19 mg/mL (48 µM); 20 mM HEPES pH 8, 0.1 mM EDTA, 250 mM KCl, 5% glycerol, 2 mM DTT; DLS at 25 °C; step constants kd and kd1 from a defibrillation model fitted to the apparent weight average mass. The settings on record: both partners purified.

The target of experiment [6] is T3, full-length recombinant human RAD51 …. Briefly: MST; RED-tris-NTA-labelled 6xHis-RAD51 constant (25 nM in the methods, 100 nM in the results), 16 concentrations of BRC4 up to 32 µM; apparent Kd bounded by the lowest EC50 (titration regime). The settings on record: both partners purified.
Experiment [7] shares this target. Briefly: static light scattering + other: dynamic light scattering + MST; midpoint of BRC4-induced RAD51 defibrillation against the BRC4/RAD51 molar ratio, RAD51 6.25 µM (SLS, DLS) or 100 nM (MST). The following applies: both partners purified.
Experiment [8] has the same target. Briefly: negative-staining TEM with streptavidin-gold labelling; 0.1 mg/mL (2.5 µM) 6xHis-RAD51 with biotinylated BRC4 (non-labelled BRC4 as control) on grids, streptavidin-gold. The settings on record: both partners purified.
The target of experiment [9] is T4, full-length recombinant human RAD51 (N-terminal 6xHis-tagged) (human), Q06609.
T4 chain: T1 sequence (Q06609 1-339)
Briefly: static light scattering (CG-MALS, Zimm plots); RAD51 alone at five concentrations between 0.1 and 0.35 mg/mL (2.5-8.75 µM); 20 mM HEPES pH 8, 0.1 mM EDTA, 250 mM KCl, 5% glycerol, 2 mM DTT. The settings on record: remark: other sources report otherwise.

Values joined by “and” are separate entries in the source; they are usually repeats but may differ in a detail not shown here. Identical values can stand only once. A value given as a limit tells only on which side of the number the result lay.

With `N.N.[Cl][Pt][Cl]` [cisplatin], the “RAD51 nuclear foci, cisplatin alone” value in [1] (50 µM cisplatin) is recorded as “large number of nuclear RAD51 foci”. On to `COc1cccc2c1C(=O)c1c(O)c3c(c(O)c1C2=O)C[C@@](O)(C(=O)CO)C[C@@H]3O[C@H]1C[C@H](N)[C@H](O)[C@H](C)O1` [doxorubicin], for which, in experiment [1] (200 nM doxorubicin), the “RAD51 nuclear foci, doxorubicin alone” value was “large number of nuclear RAD51 foci”. BRCA2 BRC4 (from UniProt P51587): in the experiment with RAD51 (Homo sapiens), the Kd is 1500 nM. As to “BRCA2: large protein (3418 amino acids) that interacts with RAD51 through eight BRC repeats”, the BRCA2-RAD51 binding affinity entry in the experiment with RAD51 was “nanomolar affinity”. Take myristoylated BRC4 peptide (BRC4myr): in [2], the homologous recombination (HR) assay in BxPC-3 cells, IC50 of HR inhibition was 10 µM; the homologous recombination (HR) assay in BxPC-3 cells, percent HR inhibition at 5, 10 and 30 µM BRC4myr is 85.1%.

Regarding “scBRC4: BRC4 (35 residues) peptide, carrying a double mutation [F1524A, T1526A] (KEPTLLGAHAASGKKVKIAKESLDKVKNLFDEKEQ)”, the “RAD51 fibrils in TEM” value with RAD51 fibrils was “the fibrils were still visible”. The “binding to RAD51 (MST)” value in experiment [3] is “no binding”. For the same molecule, in experiment [4], the “apparent weight average mass versus no-interaction prediction” value was “followed the theoretical “no-interaction” prediction”.

B1: BRC4 peptide (residues 1517-1551 of BRCA2) (peptide)
peptide: KEPTLLGFHTASGKKVKIAKESLDKVKNLFDEKEQ
notes: BRCA2, fourth BRC repeat, residues 1517-1551, MW 3957.6 Da; also called fourth BRC repeat of BRCA2; source: bought: Thermo Fisher Scientific (synthetic peptide)
Consider B1, for which, in experiment [5], the “kd (each step of loss of a RAD51 unit from a fibril, from the defibrillation model)” value worked out at 33.7 ± 0.5 dimensionless. Also, the Kd in experiment [6] is not above 60 nM. In addition, in experiment [7], the stoichiometry N (commonly a count of units in the complex or per binding partner) turned out to be 1 BRC4 per RAD51.

B2: biotinylated BRC4 peptide (peptide)
peptide: B1 peptide
modifications: biotin (position not given)
notes: BRCA2, fourth BRC repeat, residues 1517-1551, as BRC4; also called labelled peptide; source: bought: Thermo Fisher Scientific (synthetic peptide, BRC4 derivative)
With B2, the binding result in [8] is recorded as “binds”.

B3: full-length recombinant human RAD51 (N-terminal 6xHis-tagged), Q06609 1-339 (natural protein)
chain: T1 sequence (Q06609 1-339)
As to B3, the stoichiometry N (protomers per aggregate) in experiment [9] is 40 and 70.

These data come from publication PMC9368738, “The Mechanistic Understanding of RAD51 Defibrillation: A Critical Step in BRCA2-Mediated DNA Repair by Homologous Recombination” (International Journal of Molecular Sciences, 2022).
